Assay results published in IntAct's records for PubMed 12571249.

B1: Syndecan-4 (Rattus norvegicus (Rat)), P34901 (parent)
chain: MAPVCLFAPLLLLLLGGFPVAPGESIRETEVIDPQDLLEGRYFSGALPDDEDAGGLEQDSDFELSGSGDLDDTEEPRTFPEVISPLVPLDNHIPENAQPGIRVPSEPKELEENEVIPKRVPSDVGDDDVSNKVSMSSTSQGSNIFERTEVLAALIVGGVVGILFAVFLILLLVYRMKKKDEGSYDLGKKPIYKKAPTNEFYA

Variants of: B1
Conditions: with kpca_human PRKCA
Y192F was tested, and the “effect of a mutation on the interaction” value was “disrupting interaction”.
